Patent US20220174981A1, “PROLINE TOLERANT TRIPEPTIDYL PEPTIDASES AND USES THEREOF” (DuPont Nutrition Biosciences APS, priority 2014, published 2022)
Peptide text beside a SMILES is read from it.

T1: T. reesei proline tolerant tripeptidyl peptidase TRI083 (SEQ ID No. 1, SEQ ID No. 2 or SEQ ID No. 29) (Trichoderma reesei, UniProt G0RXE9)
T1 sequence (G0RXE9 198-612): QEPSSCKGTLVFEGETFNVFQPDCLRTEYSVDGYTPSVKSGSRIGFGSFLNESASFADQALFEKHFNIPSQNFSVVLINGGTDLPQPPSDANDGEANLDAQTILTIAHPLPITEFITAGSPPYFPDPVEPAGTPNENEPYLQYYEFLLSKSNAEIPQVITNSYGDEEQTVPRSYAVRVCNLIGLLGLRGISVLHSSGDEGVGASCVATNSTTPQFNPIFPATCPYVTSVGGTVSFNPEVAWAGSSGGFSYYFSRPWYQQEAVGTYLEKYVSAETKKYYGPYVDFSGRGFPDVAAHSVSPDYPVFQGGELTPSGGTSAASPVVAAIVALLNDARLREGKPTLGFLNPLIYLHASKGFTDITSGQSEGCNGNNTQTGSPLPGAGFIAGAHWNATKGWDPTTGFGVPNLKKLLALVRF


Key:
Format in all cases: biochemical
[1] = target: T1, T. reesei proline tolerant tripeptidyl peptidase TRI083 (SEQ ID No. 1, SEQ ID No. 2 or SEQ ID No. 29); assay: Product inhibition of proline tolerant tripeptidyl peptidase TRI083 with H-Ala-Ala-Ala-pNA as substrate; conditions: competitive inhibitor fit; substrate Ala-Ala-Ala-pNA (0-2000 nM); McIlvaine buffer pH 4.0, 50° C.; tripeptide at 3.6 mM, dipeptide at 18 mM
Method: For proline tolerant tripeptidyl peptidase the chromogenic peptide H-Ala-Ala-Ala-pNA was used. The assay was conducted as follows, 27.5 μL of appropriately diluted enzyme was added to 200 μl McIlvaine buffer (20 mM, pH 4.0). After incubation at 50° C. for 5 min, 12.5 μL of the chromogenic peptide solution (5 mg/mL dissolved in dimethyl sulfoxide (DMSO); Sigma-Aldrich, Denmark) were added to the reaction mixture. The reaction was terminated by adding 50 μL of 0.5 M trichloroacetic acid (TCA; Sigma-Aldrich, Denmark). After centrifugation (15,000×g, 5 min), 240 μL of the solution were transferred to a microtiter plate (MTP; Kisker-biotech, Germany) and the absorption was measured in an MTP reader (Molecular Devices, Denmark) at 405 nm. One katal of proteolytic activity was defined as the amount of enzyme required to release 1 mol of p-nitroaniline per second. […]
The inhibition experiments were set up as described in Example 14. […] The degree of pre-hydrolysis of H-Ala-Ala-Ala-OH was determined by gas chromatography (Husek, 1991; FEBS-Letters 280, 354-356). About 0.18 mg/mL alanine was measured, which corresponds to about 54% hydrolyses of the initially applied H-Ala-Ala-Ala-OH.
Subsequently, TRI083 was analyzed for product inhibition without inhibitor, with 1 mg/mL H-Ala-Ala-Ala-OH as well with the PepN pre-hydrolyzed H-Ala-Ala-Ala-OH (1 mg/mL).

[2] = test system: whey protein (WPI, Lacprodan-9224); assay: Hydrolysis of 20% whey protein (WPI) with Alphalase FP2 and TRI083, OPA degree of hydrolysis; conditions: FP2 0.0%
Method: For whey protein hydrolysis, Lacprodan-9224 (Arla Food Ingredients, Denmark) was employed. A 20% (w/w) WPI suspension was prepared in H2Od and adjusted to pH 4.0 with acetic acid (Sigma-Aldrich, Denmark). To prevent microbial growth, 0.0285% (w/w) NaN3 was added. A volume of 200 μl of the WPI suspension was transferred into each of the 96 wells of a microtiter plate (MTP; VWR, Denmark). Subsequently, 5 μl of each consecutively diluted peptidase, Alphalase® FP2 and proline tolerant tripeptidyl peptidase (3PP=TRI083; 0-8750 nkat H-Ala-Ala-Ala-pNA/mL activity in stock solution added), were added to each well, resulting in dosages as shown in Table 1. The MTP was sealed and placed in an EMS incubator/shaker (Thermo Scientific, Denmark) at 40° C. After 24 h of incubation and shaking at 400 rpm, the hydrolyses were stopped by addition of 20 μl of 2 M trichloroacetic acid (TCA; Sigma-Aldrich, Denmark). As a reference, a plain 20% WPI (w/w) suspension was used which was treated in the same manner as the WPI hydrolyses. Unhydrolysed, precipitated WPI was removed by filtration (0.22 μm). On the filtered WPI hydrolysate o-phthaldehyde (OPA) derivatization was conducted according to Nielsen et al. (2001) with minor modifications. A sample volume of 25 μl was transferred to a well and 175 μl of OPA-reagent, dissolved in phosphate buffer pH 11, was added subsequently. The measured absorptions at 340 nm in an MTP reader (Molecular Devices, Denmark) were transformed into the relative degree of hydrolysis (DH) in per cent.
A 20% (w/w) WPI suspension hydrolysed in 6 M HCl (Sigma-Aldrich, Denmark) at 100° C. for 24 h served as reference (100% DH).

sodium caseinate = assay: 5% sodium caseinate hydrolysis with endopeptidase, TRI083 and PepN, serine equivalents; conditions: 17,500 nkat/mL TRI083
H-Ala-Ala-Ala-pNA = assay: Exopeptidase Broad-Specificity Assay (EBSA) with H-Ala-Ala-Ala-pNA; pH and temperature profile
Method: 10 μL of the chromogenic peptide solution (10 mM H-Ala-Ala-Ala-pNA dissolved in dimethyl sulfoxide (DMSO); MW=387.82; Bachem, Switzerland) were added to 130 μl Na-acetate (20 mM, adjusted to pH 4.0 with acetic acid) in a microtiter plate and heated for 5 minutes at 40° C. 10 μL of appropriately diluted enzyme was added and the absorption was measured in a MTP reader (Versa max, Molecular Devices, Denmark) at 405 nm. One katal of proteolytic activity was defined as the amount of enzyme required to release 1 mole of p-nitroaniline per second.
The chromogenic peptide H-Ala-Ala-Ala-pNA (MW=387.82; Bachem, Switzerland) was used to determine the activity of proline tolerant tripeptidyl peptidase in the samples produced as described above. The assay was conducted as follows, 10 μL of the chromogenic peptide solution (10 mM dissolved in dimethyl sulfoxide; DMSO) were added to 130 μl Na-acetate (20 mM, adjusted to pH 4.0 with acetic acid) in a microtiter plate and heated for 5 minutes at 40° C. 10 μL of appropriately diluted enzyme was added and the absorption was measured in an MTP reader (Versa max, Molecular Devices, Denmark) at 405 nm. One katal of proteolytic activity was defined as the amount of enzyme required to release 1 mole of p-nitroaniline per second.
The proline tolerant tripeptidyl peptidase assay described with H-Ala-Ala-Ala-pNA substrate above with modification of using the buffers 20 mM Na-glycine (pH 2.0, 2.5, 3.0, 3.5 and 4.0) or 20 mM Na-acetate buffer (pH 4.0, 4.5 and 5.5) was used to determine the pH profile of proline tolerant tripeptidyl peptidase TRI083 (FIG. 2) and TRI045 (FIG. 24)..
The proline tolerant tripeptidyl peptidase assay described above was used at temperatures 25, 50, 55, 60, 65, 70, 75, 80 and 85° C.
For proline tolerant tripeptidyl peptidase the chromogenic peptide H-Ala-Ala-Ala-pNA was used. The assay was conducted as follows, 27.5 μL of appropriately diluted enzyme was added to 200 μl McIlvaine buffer (20 mM, pH 4.0). After incubation at 50° C. for 5 min, 12.5 μL of the chromogenic peptide solution (5 mg/mL dissolved in dimethyl sulfoxide (DMSO); Sigma-Aldrich, Denmark) were added to the reaction mixture. The reaction was terminated by adding 50 μL of 0.5 M trichloroacetic acid (TCA; Sigma-Aldrich, Denmark). After centrifugation (15,000×g, 5 min), 240 μL of the solution were transferred to a microtiter plate (MTP; Kisker-biotech, Germany) and the absorption was measured in an MTP reader (Molecular Devices, Denmark) at 405 nm. One katal of proteolytic activity was defined as the amount of enzyme required to release 1 mol of p-nitroaniline per second.

Row | Molecule | Ki [1] [mM] | Degree of hydrolysis of 20% (w/w) WPI ([2]; TRI083 2,188 nkat/mL stock solution) [%] | Degree of hydrolysis of 20% (w/w) WPI ([2]; TRI083 4,375 nkat/mL stock solution) [%] | Degree of hydrolysis of 20% (w/w) WPI ([2]; TRI083 8,375 nkat/mL stock solution) [%] | increase of SE (sodium caseinate) [mM] | activity at 70° C. and higher temperatures (H-Ala-Ala-Ala-pNA) | Optimum pH (H-Ala-Ala-Ala-pNA; H-Ala-Ala-Ala-pNA, 20 mM Na-glycine pH 2.0-4.0 or Na-acetate pH 4.0-5.5) | optimum temperature (H-Ala-Ala-Ala-pNA; tested at 25-85° C.) [°C]
1 | C[C@H](N)C(=O)N[C@@H](C)C(=O)N[C@@H](C)C(=O)O [H-Ala-Ala-Ala-OH] | 0.34 | – | – | – | – | – | – | –
2 | C[C@H](N)C(=O)N[C@@H](C)C(=O)O [H-Ala-Ala-OH] (H-Ala-Ala-OH) | 40 | – | – | – | – | – | – | –
3 | TRI083: proline tolerant tripeptidyl peptidase (SEQ ID No. 1, SEQ ID No. 2 or SEQ ID No. 29), expressed in Trichoderma reesei (protein) QEPSSCKGTLVFEGETFNVFQPDCLRTEYSVDGYTPSVKSGSRIGFGSFLNESASFADQALFEKHFNIPSQNFSVVLINGGTDLPQPPSDANDGEANLDAQTILTIAHPLPITEFITAGSPPYFPDPVEPAGTPNENEPYLQYYEFLLSKSNAEIPQVITNSYGDEEQTVPRSYAVRVCNLIGLLGLRGISVLHSSGDEGVGASCVATNSTTPQFNPIFPATCPYVTSVGGTVSFNPEVAWAGSSGGFSYYFSRPWYQQEAVGTYLEKYVSAETKKYYGPYVDFSGRGFPDVAAHSVSPDYPVFQGGELTPSGGTSAASPVVAAIVALLNDARLREGKPTLGFLNPLIYLHASKGFTDITSGQSEGCNGNNTQTGSPLPGAGFIAGAHWNATKGWDPTTGFGVPNLKKLLALVRF | – | 0.5 | −0.9 | 1.4 | 18 | no activity | 4.0 | 50
